Reference: patent US20190112349A1 (UNUM THERAPEUTICS, published 2019)
Read-outs that look alike come from different tables or passages of the source.

Legend:
Assay in all cases: cell-based or functional assay
ACTR variant 102 = target: ACTR variant 102
[1] = target: ACTR variant 1 (wild-type ACTR)
ACTR variant 131 = target: ACTR variant 131
[2] = target: ACTR variant 1 (wild-type ACTR); remark: listed apart in the source
ACTR variant 94 = target: ACTR variant 94
ACTR variant 103 = target: ACTR variant 103
ACTR variant 93 = target: ACTR variant 93
ACTR variant 26 = target: ACTR variant 26
ACTR variant 127 = target: ACTR variant 127

Sequence of ACTR variant 131 (chain, as listed by the source mutant limits assumed): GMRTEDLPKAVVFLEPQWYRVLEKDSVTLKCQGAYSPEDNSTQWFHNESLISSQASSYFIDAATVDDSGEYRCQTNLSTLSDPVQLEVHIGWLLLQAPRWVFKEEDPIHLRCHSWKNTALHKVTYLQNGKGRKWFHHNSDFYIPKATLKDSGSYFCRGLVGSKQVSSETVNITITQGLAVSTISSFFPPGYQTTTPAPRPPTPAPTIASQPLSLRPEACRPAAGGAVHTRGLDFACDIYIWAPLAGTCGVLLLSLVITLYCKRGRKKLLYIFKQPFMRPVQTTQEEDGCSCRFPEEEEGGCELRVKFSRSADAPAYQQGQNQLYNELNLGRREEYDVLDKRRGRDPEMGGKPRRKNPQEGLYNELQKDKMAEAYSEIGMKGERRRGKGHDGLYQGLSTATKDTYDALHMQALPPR
Sequence of ACTR variant 102 (chain, as listed by the source mutant limits assumed): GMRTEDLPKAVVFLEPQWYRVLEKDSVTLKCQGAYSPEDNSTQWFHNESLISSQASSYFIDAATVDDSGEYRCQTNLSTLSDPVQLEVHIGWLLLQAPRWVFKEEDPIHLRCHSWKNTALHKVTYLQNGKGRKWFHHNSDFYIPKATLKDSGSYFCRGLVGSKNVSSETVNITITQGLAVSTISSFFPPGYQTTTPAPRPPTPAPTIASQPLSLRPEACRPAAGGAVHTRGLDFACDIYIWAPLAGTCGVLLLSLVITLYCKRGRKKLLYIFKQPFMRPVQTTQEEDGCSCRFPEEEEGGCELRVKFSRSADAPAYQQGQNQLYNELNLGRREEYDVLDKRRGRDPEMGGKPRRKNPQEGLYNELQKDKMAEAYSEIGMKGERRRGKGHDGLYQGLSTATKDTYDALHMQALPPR

B1: Fc-enhanced anti-CD19 antibody (antibody, V domains shown)
VH: EVQLVESGGGLVKPGGSLKLSCAASGYTFTSYVMHWVRQAPGKGLEWIGYINPYNDGTKYNEKFQGRVTISSDKSISTAYMELSSLRSEDTAMYYCARGTYYYGTRVFDYWGQGTLVTVSS
VL: DIVMTQSPATLSLSPGERATLSCRSSKSLQNVNGNTYLYWFQQKPGQSPQLLIYRMSNLNSGVPDRFSGSGSGTEFTLTISSLEPEDFAVYYCMQHLEYPITFGAGTKLEIKR
ACTR variant 102
  Jurkat NFAT luciferase EC50: 2.2 nM
[1]
  Jurkat NFAT luciferase EC50: 0.26 nM
ACTR variant 131
  Jurkat NFAT luciferase EC50: 2 nM

B2: wild-type anti-BCMA antibody (antibody)
heavy: not shown
light: DIVLTQSPPSLAMSLGKRATISCRASESVTILGSHLIHWYQQKPGQPPTLLIQLASNVQTGVPARFSGSGSRTDFTLTIDPVEEDDVAVYYCLQSRTIPRTFGGGTKLEIKRTVAAPSVFIFPPSDEQLKSGTASVVCLLNNFYPREAKVQWKVDNALQSGNSQESVTEQDSKDSTYSLSSTLTLSKADYEKHKVYACEVTHQGLSSPVTKSFNRGEC
[2]
  Jurkat NFAT luciferase EC50: < 20 nM

B3: afucosylated Fc-enhanced anti-BCMA antibody (S239D, I332E) (antibody)
heavy: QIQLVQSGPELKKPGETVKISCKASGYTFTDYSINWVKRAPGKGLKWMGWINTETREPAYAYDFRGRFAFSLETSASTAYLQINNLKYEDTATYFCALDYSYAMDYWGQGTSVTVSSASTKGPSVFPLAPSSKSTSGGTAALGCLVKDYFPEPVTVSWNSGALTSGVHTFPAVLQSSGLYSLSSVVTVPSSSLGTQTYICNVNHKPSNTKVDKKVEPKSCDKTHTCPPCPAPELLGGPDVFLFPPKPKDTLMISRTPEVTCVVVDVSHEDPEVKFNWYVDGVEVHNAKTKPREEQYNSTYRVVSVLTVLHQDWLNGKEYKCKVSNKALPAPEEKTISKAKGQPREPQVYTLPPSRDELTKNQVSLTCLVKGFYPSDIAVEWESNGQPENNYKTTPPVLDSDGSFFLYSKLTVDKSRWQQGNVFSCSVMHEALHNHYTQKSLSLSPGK
light: B2 light
modifications: afucosylated Fc glycan
[2]
  Jurkat NFAT luciferase EC50: 0.17 nM
ACTR variant 94
  Jurkat NFAT luciferase EC50: 1.12 nM
ACTR variant 103
  Jurkat NFAT luciferase EC50: 8.44 nM
ACTR variant 93
  Jurkat NFAT luciferase EC50: < 5 nM
ACTR variant 26
  Jurkat NFAT luciferase EC50: 4.36 nM
ACTR variant 127
  Jurkat NFAT luciferase EC50: 2.26 nM

B4: afucosylated anti-BCMA antibody (antibody)
heavy: not shown
light: B2 light
modifications: afucosylated Fc glycan
[2]
  Jurkat NFAT luciferase EC50: 1 nM
ACTR variant 93
  Jurkat NFAT luciferase EC50: < 100 nM

B5: Fc-enhanced anti-BCMA antibody (S239D, I332E) (antibody)
heavy: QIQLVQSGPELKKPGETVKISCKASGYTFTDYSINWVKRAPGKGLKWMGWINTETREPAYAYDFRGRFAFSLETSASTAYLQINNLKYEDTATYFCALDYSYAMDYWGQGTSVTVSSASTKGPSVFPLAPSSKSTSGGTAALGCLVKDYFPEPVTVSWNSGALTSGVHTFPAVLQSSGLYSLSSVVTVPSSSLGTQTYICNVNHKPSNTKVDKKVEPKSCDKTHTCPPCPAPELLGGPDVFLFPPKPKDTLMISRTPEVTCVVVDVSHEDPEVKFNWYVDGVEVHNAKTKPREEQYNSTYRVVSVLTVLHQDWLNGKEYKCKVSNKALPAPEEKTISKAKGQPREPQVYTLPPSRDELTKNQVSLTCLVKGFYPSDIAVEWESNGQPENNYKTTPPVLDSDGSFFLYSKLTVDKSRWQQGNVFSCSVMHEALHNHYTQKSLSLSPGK
light: B2 light
[2]
  Jurkat NFAT luciferase EC50: 0.83 nM
ACTR variant 94
  Jurkat NFAT luciferase EC50: < 100 nM
ACTR variant 127
  Jurkat NFAT luciferase EC50: < 100 nM
